# According to IntAct's records for PubMed 31515488:
# B1: Tuftelin-interacting protein 11 (Homo sapiens), Q9UBB9 (parent)
# chain: MSLSHLYRDGEGRIDDDDDERENFEITDWDLQNEFNPNRQRHWQTKEEATYGVWAERDSDDERPSFGGKRARDYSAPVNFISAGLKKGAAEEAELEDSDDEEKPVKQDDFPKDFGPRKLKTGGNFKPSQKGFAGGTKSFMDFGSWERHTKGIGQKLLQKMGYVPGRGLGKNAQGIINPIEAKQRKGKGAVGAYGSERTTQSMQDFPVVDSEEEAEEEFQKELSQWRKDPSGSKKKPKYSYKTVEELKAKGRISKKLTAPQKELSQVKVIDMTGREQKVYYSYSQISHKHNVPDDGLPLQSQQLPQSGKEAKAPGFALPELEHNLQLLIDLTEQEIIQNDRQLQYERDMVVNLFHELEKMTEVLDHEERVISNLSKVLEMVEECERRMQPDCSNPLTLDECARIFETLQDKYYEEYRMSDRVDLAVAIVYPLMKEYFKEWDPLKDCTYGTEIISKWKSLLENDQLLSHGGQDLSADAFHRLIWEVWMPFVRNIVTQWQPRNCDPMVDFLDSWVHIIPVWILDNILDQLIFPKLQKEVENWNPLTDTVPIHSWIHPWLPLMQARLEPLYSPIRSKLSSALQKWHPSDSSAKLILQPWKDVFTPGSWEAFMVKNIVPKLGMCLGELVINPHQQHMDAFYWVIDWEGMISVSSLVGLLEKHFFPKWLQVLCSWLSNSPNYEEITKWYLGWKSMFSDQVLAHPSVKDKFNEALDIMNRAVSSNVGAYMQPGARENIAYLTHTERRKDFQYEAMQERREAENMAQRGIGVAASSVPMNFKDLIETKAEEHNIVFMPVIGKRHEGKQLYTFGRIVIYIDRGVVFVQGEKTWVPTSLQSLIDMAK
# partner: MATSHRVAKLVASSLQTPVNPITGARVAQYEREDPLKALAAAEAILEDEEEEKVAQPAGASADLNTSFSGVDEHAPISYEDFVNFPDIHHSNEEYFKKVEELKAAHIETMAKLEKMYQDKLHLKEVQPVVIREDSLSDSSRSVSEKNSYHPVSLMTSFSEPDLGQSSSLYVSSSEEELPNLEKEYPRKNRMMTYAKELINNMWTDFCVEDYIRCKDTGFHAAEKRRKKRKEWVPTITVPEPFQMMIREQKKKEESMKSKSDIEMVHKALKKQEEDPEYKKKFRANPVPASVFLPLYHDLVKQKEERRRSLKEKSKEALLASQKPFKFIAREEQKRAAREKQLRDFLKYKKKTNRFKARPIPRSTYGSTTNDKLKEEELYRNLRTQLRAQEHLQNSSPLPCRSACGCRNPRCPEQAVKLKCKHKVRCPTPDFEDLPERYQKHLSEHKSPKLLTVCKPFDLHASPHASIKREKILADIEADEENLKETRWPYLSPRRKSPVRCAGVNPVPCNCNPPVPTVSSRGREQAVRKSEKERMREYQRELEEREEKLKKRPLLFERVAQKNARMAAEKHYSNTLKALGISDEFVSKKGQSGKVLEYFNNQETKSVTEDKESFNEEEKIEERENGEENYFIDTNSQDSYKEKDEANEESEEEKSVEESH
# B2: Isoform 1 of Myotubularin-related protein 9 (Homo sapiens), Q96QG7-1 (parent)
# chain: MEFAELIKTPRVDNVVLHRPFYPAVEGTLCLTGHHLILSSRQDNTEELWLLHSNIDAIDKRFVGSLGTIIIKCKDFRIIQLDIPGMEECLNIASSIEALSTLDSITLMYPFFYRPMFEVIEDGWHSFLPEQEFELYSSATSEWRLSYVNKEFAVCPSYPPIVTVPKSIDDEALRKVATFRHGGRFPVLSYYHKKNGMVIMRSGQPLTGTNGRRCKEDEKLINATLRAGKRGYIIDTRSLNVAQQTRAKGGGFEQEAHYPQWRRIHKSIERYHILQESLIKLVEACNDQTHNMDRWLSKLEASNWLTHIKEILTTACLAAQCIDREGASILIHGTEGTDSTLQVTSLAQIILEPRSRTIRGFEALIEREWLQAGHPFQQRCAQSAYCNTKQKWEAPVFLLFLDCVWQILRQFPCSFEFNENFLIMLFEHAYASQFGTFLGNNESERCKLKLQQKTMSLWSWVNQPSELSKFTNPLFEANNLVIWPSVAPQSLPLWEGIFLRWNRSSKYLDEAYEEMVNIIEYNKELQAKVNILRRQLAELETEDGMQESP
# partner: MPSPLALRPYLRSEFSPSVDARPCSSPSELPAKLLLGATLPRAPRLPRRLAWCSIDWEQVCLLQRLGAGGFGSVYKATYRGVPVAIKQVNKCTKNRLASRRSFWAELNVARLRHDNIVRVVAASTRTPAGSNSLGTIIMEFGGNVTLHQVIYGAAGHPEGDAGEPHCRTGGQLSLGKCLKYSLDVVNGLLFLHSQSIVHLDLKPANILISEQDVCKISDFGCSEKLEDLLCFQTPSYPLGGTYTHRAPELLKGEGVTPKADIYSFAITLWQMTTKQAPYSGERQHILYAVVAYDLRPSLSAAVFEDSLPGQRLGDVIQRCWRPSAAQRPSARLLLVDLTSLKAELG
# B3: Zinc finger protein Aiolos (Homo sapiens), Q9UKT9-1 (parent)
# chain: MEDIQTNAELKSTQEQSVPAESAAVLNDYSLTKSHEMENVDSGEGPANEDEDIGDDSMKVKDEYSERDENVLKSEPMGNAEEPEIPYSYSREYNEYENIKLERHVVSFDSSRPTSGKMNCDVCGLSCISFNVLMVHKRSHTGERPFQCNQCGASFTQKGNLLRHIKLHTGEKPFKCHLCNYACQRRDALTGHLRTHSVEKPYKCEFCGRSYKQRSSLEEHKERCRTFLQSTDPGDTASAEARHIKAEMGSERALVLDRLASNVAKRKSSMPQKFIGEKRHCFDVNYNSSYMYEKESELIQTRMMDQAINNAISYLGAEALRPLVQTPPAPTSEMVPVISSMYPIALTRAEMSNGAPQELEKKSIHLPEKSVPSERGLSPNNSGHDSTDTDSNHEERQNHIYQQNHMVLSRARNGMPLLKEVPRSYELLKPPPICPRDSVKVINKEGEVMDVYRCDHCRVLFLDYVMFTIHMGCHGFRDPFECNMCGYRSHDRYEFSSHIARGEHRALLK
# Variants of: B1
# Conditions: with FAM161A
row,Variant,effect of a mutation on the interaction
1,S688L,with no effect

# Variants of: B2
# Conditions: with mos_human MOS
row,Variant,effect of a mutation on the interaction
1,F127I,with no effect

# Variants of: B2
# Conditions: with mos_human MOS
# Remark: another data set of the same source
row,Variant,effect of a mutation on the interaction
1,S126C,with no effect

# Variants of: B3
# Conditions: with aakb2_human PRKAB2, O43741
# Sequence of aakb2_human PRKAB2, O43741 (O43741 whole entry): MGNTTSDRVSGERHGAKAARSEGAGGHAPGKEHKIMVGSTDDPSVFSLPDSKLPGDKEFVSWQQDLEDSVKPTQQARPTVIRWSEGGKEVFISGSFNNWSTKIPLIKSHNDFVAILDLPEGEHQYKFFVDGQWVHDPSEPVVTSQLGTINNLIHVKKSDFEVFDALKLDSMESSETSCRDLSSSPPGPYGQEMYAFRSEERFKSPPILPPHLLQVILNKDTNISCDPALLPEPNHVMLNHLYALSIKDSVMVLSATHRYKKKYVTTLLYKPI
row,Variant,effect of a mutation on the interaction
1,I338M,with no effect

# Variants of: B3
# Conditions: with pfd5_human PFDN5, Q99471
# Sequence of pfd5_human PFDN5, Q99471 (Q99471 whole entry): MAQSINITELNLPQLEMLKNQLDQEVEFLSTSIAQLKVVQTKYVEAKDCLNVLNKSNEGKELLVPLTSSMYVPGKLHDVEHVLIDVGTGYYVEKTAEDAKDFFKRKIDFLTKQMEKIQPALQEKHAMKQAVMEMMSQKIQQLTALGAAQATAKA
row,Variant,effect of a mutation on the interaction
1,I338M,with no effect

# Variants of: B3
# Conditions: with p85b_human PIK3R2, O00459
# Sequence of p85b_human PIK3R2, O00459 (O00459 whole entry): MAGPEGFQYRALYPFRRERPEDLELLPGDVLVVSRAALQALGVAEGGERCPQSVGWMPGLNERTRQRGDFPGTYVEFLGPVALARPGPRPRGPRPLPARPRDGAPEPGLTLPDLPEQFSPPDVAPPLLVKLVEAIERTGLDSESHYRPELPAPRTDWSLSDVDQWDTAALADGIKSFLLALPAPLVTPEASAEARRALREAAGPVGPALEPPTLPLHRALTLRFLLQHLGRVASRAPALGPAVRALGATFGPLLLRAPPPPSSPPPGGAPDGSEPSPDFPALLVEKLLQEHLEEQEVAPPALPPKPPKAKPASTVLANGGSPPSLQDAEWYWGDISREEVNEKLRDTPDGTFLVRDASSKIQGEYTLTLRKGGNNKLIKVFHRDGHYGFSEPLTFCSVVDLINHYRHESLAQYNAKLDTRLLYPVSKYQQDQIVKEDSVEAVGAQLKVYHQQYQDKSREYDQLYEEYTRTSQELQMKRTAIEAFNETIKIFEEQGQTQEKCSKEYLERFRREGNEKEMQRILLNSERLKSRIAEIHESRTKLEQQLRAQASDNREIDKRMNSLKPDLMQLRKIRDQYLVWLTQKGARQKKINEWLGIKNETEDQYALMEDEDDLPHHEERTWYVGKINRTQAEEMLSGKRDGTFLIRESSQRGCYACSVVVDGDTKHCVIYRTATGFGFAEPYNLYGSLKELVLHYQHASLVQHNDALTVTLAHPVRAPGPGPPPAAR
row,Variant,effect of a mutation on the interaction
1,I338M,with no effect

# Variants of: B3
# Conditions: with aakb2_human PRKAB2, O43741
# Remark: another data set of the same source
row,Variant,effect of a mutation on the interaction
1,A24V,with no effect

# Variants of: B3
# Conditions: with exoc8_human EXOC8, Q8IYI6
# Sequence of exoc8_human EXOC8, Q8IYI6 (Q8IYI6 whole entry): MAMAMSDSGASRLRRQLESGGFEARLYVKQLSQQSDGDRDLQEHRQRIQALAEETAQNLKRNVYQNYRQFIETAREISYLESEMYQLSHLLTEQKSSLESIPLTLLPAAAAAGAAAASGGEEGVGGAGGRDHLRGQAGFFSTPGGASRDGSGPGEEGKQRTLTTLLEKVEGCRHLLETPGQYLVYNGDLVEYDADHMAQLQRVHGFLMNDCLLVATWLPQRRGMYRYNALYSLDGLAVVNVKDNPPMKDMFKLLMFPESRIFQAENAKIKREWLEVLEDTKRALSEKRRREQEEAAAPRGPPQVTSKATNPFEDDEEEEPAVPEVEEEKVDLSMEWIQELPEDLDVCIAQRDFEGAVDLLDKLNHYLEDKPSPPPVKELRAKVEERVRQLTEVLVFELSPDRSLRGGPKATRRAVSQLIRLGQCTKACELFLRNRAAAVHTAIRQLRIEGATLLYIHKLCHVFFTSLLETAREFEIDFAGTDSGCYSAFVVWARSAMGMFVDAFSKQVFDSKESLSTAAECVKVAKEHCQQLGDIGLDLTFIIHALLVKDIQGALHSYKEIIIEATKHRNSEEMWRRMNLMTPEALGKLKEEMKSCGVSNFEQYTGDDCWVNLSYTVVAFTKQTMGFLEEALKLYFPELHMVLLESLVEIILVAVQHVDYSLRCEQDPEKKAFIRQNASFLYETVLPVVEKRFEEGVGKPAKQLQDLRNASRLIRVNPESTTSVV
row,Variant,effect of a mutation on the interaction
1,A24V,with no effect

# Variants of: B3
# Conditions: with tb22b_human TBC1D22B
row,Variant,effect of a mutation on the interaction
1,A24V,with no effect

# Variants of: B3
# Conditions: with p85b_human PIK3R2, O00459
# Remark: another data set of the same source
row,Variant,effect of a mutation on the interaction
1,A24V,with no effect

# Variants of: B3
# Conditions: with rpac1_human POLR1C
row,Variant,effect of a mutation on the interaction
1,A24V,with no effect

# Variants of: B3
# Conditions: with pfd5_human PFDN5, Q99471
# Remark: another data set of the same source
row,Variant,effect of a mutation on the interaction
1,A24V,with no effect

# Variants of: B3
# Conditions: with nek6_human NEK6, Q9HC98
# Sequence of nek6_human NEK6, Q9HC98 (Q9HC98 whole entry): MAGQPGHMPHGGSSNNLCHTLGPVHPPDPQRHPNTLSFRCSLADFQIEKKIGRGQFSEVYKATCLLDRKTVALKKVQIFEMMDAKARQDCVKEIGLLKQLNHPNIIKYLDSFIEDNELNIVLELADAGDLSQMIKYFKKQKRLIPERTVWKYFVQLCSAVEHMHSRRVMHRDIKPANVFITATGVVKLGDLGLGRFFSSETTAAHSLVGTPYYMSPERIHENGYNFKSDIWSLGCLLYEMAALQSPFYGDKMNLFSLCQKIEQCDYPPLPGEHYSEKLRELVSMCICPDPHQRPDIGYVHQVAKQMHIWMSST
row,Variant,effect of a mutation on the interaction
1,A24V,with no effect

# Variants of: B3
# Conditions: with exos5_human EXOSC5, Q9NQT4
# Sequence of exos5_human EXOSC5, Q9NQT4 (Q9NQT4 whole entry): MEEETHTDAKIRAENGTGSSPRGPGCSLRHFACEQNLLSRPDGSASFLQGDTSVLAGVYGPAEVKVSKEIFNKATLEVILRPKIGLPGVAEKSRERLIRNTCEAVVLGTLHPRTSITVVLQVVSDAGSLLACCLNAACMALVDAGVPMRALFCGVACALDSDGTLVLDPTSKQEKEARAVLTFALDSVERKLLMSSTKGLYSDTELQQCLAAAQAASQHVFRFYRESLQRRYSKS
row,Variant,effect of a mutation on the interaction
1,A24V,with no effect

# Variants of: B3
# Conditions: with tstd2_human TSTD2, Q5T7W7
# Sequence of tstd2_human TSTD2, Q5T7W7 (Q5T7W7 whole entry): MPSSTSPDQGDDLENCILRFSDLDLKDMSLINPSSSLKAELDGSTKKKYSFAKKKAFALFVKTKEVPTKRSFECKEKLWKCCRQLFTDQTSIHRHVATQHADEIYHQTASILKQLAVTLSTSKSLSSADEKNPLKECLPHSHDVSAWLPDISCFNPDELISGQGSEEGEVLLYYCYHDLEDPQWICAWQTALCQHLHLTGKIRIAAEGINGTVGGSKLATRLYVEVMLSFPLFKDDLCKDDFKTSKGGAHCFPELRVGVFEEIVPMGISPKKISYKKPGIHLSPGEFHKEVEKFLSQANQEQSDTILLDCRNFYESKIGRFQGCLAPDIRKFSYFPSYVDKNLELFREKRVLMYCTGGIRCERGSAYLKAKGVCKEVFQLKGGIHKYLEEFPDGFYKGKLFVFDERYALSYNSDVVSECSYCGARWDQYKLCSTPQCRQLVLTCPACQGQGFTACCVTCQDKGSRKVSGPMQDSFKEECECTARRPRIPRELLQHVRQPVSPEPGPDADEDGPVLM
row,Variant,effect of a mutation on the interaction
1,A24V,with no effect
